Results published in patent US6465220B1, “Glycosylation using GalNac-T4 transferase” (GlycoZym ApS, priority 1998, dated 2002).
Like-named read-outs stand apart in the source and are kept apart here. Each block holds one compound with its values, some of them ahead of it.

Tests used:
GalNAc-T2 [1] = biological target: T1, GalNAc-T2 (Homo sapiens, UniProt Q10471); test: GalNAc-transferase assay with purified recombinant GalNAc-T2; format: biochemical
T1 construct: Control constructs pAcGP67-GalNAc-T1-sol, pAcGP67-GalNAc-T2-sol, pAcGP67-GalNAc-T3-sol, and pAcGP67-O^2-sol were prepared as previously described; made in house; host or cells: insect cells (baculovirus, pAcGP67)
Description: (§1) The following examples are provided to illustrate certain preferred embodiments of the invention, and should be considered as illustration and not as limitation. In the examples, GalNAc-transferase assays were performed in 50 μl total reaction mixtures containing 25 mM cacodylate (pH 7.5), 10 mM MnCl2, 0.1-0.25% Triton X-100, 150-200 μM UDP-[^14C]-GalNAc (4,000 cpm/nmole) (Amersham) and 0.06-1 mM acceptor peptides. Peptides were either synthesized or obtained from Carlbiotech (Copenhagen), or Neosystems (Strasbourg), and quality was ascertained by amino acid analysis and mass spectrometry. Peptides Muc-1a, Muc-1b, and TAP24, were derived from the tandem repeat of human MUC1, Gendler et al., J. Biol. Chem. 265:15286 (1990), and Muc2, Muc5AC, and Muc7 from the tandem repeats of MUC2, MUC5AC, and MUC7, respectively. Gum et al., J. Biol. Chem. 264:6480 (1989); Porchet et al., Biochem. Soc. Trans. 23:800 (1995); Bobek et al., J. Biol. Chem. 268:20563 (1993). GalNAc4TAP24 was produced by in vitro glycosylation using GalNAc-T2 as described in Wandall et al., J. Biol. Chem. 272:23503 (1997). Products were quantified by scintillation counting after chromatography on Dowex-1, octadecyl silica cartridges (Bakerbond), or HPLC (PC3.2/3 or mRPC C2/C18 SC2.1/10 Pharmacia, Smart System). Products produced by in vitro glycosylation were in most cases also confirmed by mass spectrometry.
(§2) In this example, GalNAc-T4 was expressed in Sf9 insect cells. Expression constructs designed to contain amino acid residues 32-578 of the coding sequence of the putative GalNAc-T4 gene shown in SEQ ID NO:1 prepared by genomic PCR of two clones containing GalNAc-T4 (described in Bennett et al. (1998), supra) were cloned into a BamHI site of the expression vector pAcGP67 (Pharmingen), and the expression construct was sequenced. The constructs pAcGP67-GalNAc-T4506Vsol and pAcGP67-GalNAc-T4506 I sol, were designed to yield a putative soluble form of the GalNAc-T4 protein with an N-terminal end positioned immediately C-terminal to a potential transmembrane domain and including the entire sequence expected to contain the catalytic domain. Control constructs pAcGP67-GalNAc-T1-sol, pAcGP67-GalNAc-T2-sol, pAcGP67-GalNAc-T3-sol, and pAcGP67-O^2-sol were prepared as previously described in White et al., J. Biol. Chem 270:24156 (1995); Bennett et al., J. Biol. Chem. 271:17006 (1996); and Bennett et al., Biochem. Biophys. Res. Comm. 211:347 (1995).
Activities measured with the mucin derived substrates, Muc7, EA2, and Muc2 (see Table I for structures and SEQ ID NOs:19, 25 and 18, respectively), were only 2-7 fold over background values. Very low activities with a few other substrates were also observed, but for many of the “mucin-like” substrates a relative high background with Sf9 cells infected with irrelevant constructs made assessment difficult. GalNAc-T4 was expressed in High Five cells and purified to near homogeneity, however, very low endogenous activity was detected with some substrates in the same fractions when medium from cells infected with irrelevant expression constructs were used in the same purification strategy. The activities presented in Table I were obtained with purified GalNAc-T4 and -T2, and are expressed as mU/mg (the concentration of enzyme protein estimated by SDS-PAGE using BSA as standard). The highest activities with GalNAc-T4 were found from assays of Sf9 medium with the mucin peptides Muc7, EA2, and Muc2, however, the efficiencies with these substrates were considerably lower than GalNAc-T2.

GalNAc-T4 = biological target: T2, GalNAc-T4 (Homo sapiens, UniProt Q8N4A0); test: GalNAc-transferase assay with purified recombinant GalNAc-T4; format: biochemical; conditions: for GalNAc-T4 activity with substrate (in words): purified GalNAc-T4
T2 construct: made in house; host or cells: High Five insect cells (baculovirus, pAcGP67 vector)
Description: as §1, with “In” for “The following examples are provided to illustrate certain preferred embodiments of the invention, and should be considered as illustration and not as limitation. In”
as §2, with “Control constructs pAcGP67-GalNAc-T1-sol, pAcGP67-GalNAc-T2-sol, pAcGP67-GalNAc-T3-sol, and pAcGP67-O^2-sol were prepared as previously described in White et al., J. Biol. Chem 270:24156 (1995); Bennett et al., J. Biol. Chem. 271:17006 (1996); and Bennett et al., Biochem. Biophys.” left out
The activities presented in Table I were obtained with purified GalNAc-T4 and -T2, and are expressed as mU/mg (the concentration of enzyme protein estimated by SDS-PAGE using BSA as standard).

GalNAc-T3 [2] = biological target: T3, GalNAc-T3 (Homo sapiens, UniProt Q14435); test: GalNAc-transferase assay with purified recombinant GalNAc-T3; format: biochemical; conditions: acceptor substrate
T3 construct: Control constructs pAcGP67-GalNAc-T1-sol, pAcGP67-GalNAc-T2-sol, pAcGP67-GalNAc-T3-sol, and pAcGP67-O^2-sol were prepared as previously described; made in house; host or cells: insect cells (baculovirus, pAcGP67)
T3 sequence (Q14435 38-633 limits assumed): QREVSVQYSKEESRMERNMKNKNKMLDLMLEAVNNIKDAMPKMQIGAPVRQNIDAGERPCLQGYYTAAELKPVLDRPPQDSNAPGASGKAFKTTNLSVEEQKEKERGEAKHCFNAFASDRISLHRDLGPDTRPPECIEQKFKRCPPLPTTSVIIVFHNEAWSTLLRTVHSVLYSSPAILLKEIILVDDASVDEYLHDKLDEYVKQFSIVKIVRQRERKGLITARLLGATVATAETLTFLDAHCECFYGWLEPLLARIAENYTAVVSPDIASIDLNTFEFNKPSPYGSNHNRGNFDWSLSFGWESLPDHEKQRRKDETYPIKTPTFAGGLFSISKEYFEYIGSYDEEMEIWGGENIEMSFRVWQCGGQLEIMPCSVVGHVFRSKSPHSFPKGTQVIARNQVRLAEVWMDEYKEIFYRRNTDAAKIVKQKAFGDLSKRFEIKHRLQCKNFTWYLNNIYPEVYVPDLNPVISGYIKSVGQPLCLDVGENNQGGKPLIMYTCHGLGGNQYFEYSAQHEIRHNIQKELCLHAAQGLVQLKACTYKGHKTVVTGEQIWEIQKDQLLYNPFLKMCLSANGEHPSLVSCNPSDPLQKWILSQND
Description: as §1, §2

GalNAc-T1 [3] = biological target: T4, GalNAc-T1 (Homo sapiens, UniProt Q10472); test: GalNAc-transferase assay with purified recombinant GalNAc-T1; format: biochemical; conditions: acceptor substrate
T4 construct: Control constructs pAcGP67-GalNAc-T1-sol, pAcGP67-GalNAc-T2-sol, pAcGP67-GalNAc-T3-sol, and pAcGP67-O^2-sol were prepared as previously described; made in house; host or cells: insect cells (baculovirus, pAcGP67)
T4 sequence (Q10472 41-559 limits assumed): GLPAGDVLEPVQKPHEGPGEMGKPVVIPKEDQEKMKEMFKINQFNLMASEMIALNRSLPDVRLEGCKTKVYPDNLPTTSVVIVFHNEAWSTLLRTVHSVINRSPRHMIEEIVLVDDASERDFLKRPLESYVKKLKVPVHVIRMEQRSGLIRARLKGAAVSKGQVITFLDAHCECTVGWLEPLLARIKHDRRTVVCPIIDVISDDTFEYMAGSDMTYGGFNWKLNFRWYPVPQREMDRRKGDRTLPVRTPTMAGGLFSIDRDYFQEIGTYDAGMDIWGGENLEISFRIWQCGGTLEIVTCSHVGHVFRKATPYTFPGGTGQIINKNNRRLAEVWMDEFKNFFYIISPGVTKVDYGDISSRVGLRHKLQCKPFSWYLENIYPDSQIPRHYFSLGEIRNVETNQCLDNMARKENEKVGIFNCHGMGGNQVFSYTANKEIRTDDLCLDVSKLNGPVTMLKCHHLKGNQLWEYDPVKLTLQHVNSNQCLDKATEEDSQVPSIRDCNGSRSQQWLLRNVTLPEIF
Description: as §1
In this example, GalNAc-T4 was expressed in Sf9 insect cells. Expression constructs designed to contain amino acid residues 32-578 of the coding sequence of the putative GalNAc-T4 gene shown in SEQ ID NO:1 prepared by genomic PCR of two clones containing GalNAc-T4 (described in Bennett et al. (1998), supra) were cloned into a BamHI site of the expression vector pAcGP67 (Pharmingen), and the expression construct was sequenced. […]

GalNAc-T3 [4] = biological target: T3, GalNAc-T3; conditions: donor substrate; data from Wandall et al.; cited from earlier work
GalNAc-T2 [5] = biological target: T1, GalNAc-T2; conditions: donor substrate; data from Wandall et al.; cited from earlier work
GalNAc-T1 [6] = biological target: T4, GalNAc-T1; conditions: donor substrate; data from Wandall et al.; cited from earlier work

GalNAc-T2 activity with acceptor peptide (GalNAc-T2 [1]; 0.25 mM peptide in 50-μl assay): 198 ± 9 milliunits/mg
GalNAc-T2 activity with acceptor peptide (GalNAc-T2 [1]; 1 mM peptide in 50-μl assay): 582 ± 9 milliunits/mg
GalNAc-T4 activity with acceptor peptide (GalNAc-T4; 0.25 mM peptide in 50-μl assay): 0.7 ± 0.5 milliunits/mg
GalNAc-T4 activity with acceptor peptide (GalNAc-T4; 1 mM peptide in 50-μl assay): 0.9 ± 0.8 milliunits/mg
GalNAc-T4 activity with substrate (in words) (GalNAc-T4): somewhat poor activities
Compound: RPAPGSTAPPA [Muc1b′, peptide derived from the tandem repeat of human MUC1]

GalNAc-T2 activity with acceptor peptide (GalNAc-T2 [1]; 0.06 mM peptide in 50-μl assay): 152 ± 3 milliunits/mg
GalNAc-T2 activity with acceptor peptide (GalNAc-T2 [1]; 0.25 mM peptide in 50-μl assay): 376 ± 5 milliunits/mg
Km (GalNAc-T2 [1]; acceptor substrate): 850 µM
Vmax GalNAc-T2 (GalNAc-T2 [1]; acceptor substrate): 1.80 nmol/min/µg
Km (GalNAc-T3 [2]): 460 µM
Vmax GalNAc-T3 (GalNAc-T3 [2]): 0.96 nmol/min/µg
GalNAc-T4 activity with acceptor peptide (GalNAc-T4; 0.06 mM peptide in 50-μl assay): 15 ± 0.1 milliunits/mg
GalNAc-T4 activity with acceptor peptide (GalNAc-T4; 0.25 mM peptide in 50-μl assay): 42 ± 4 milliunits/mg
Vmax GalNAc-T4 (GalNAc-T4; acceptor substrate): 0.44 nmol/min/µg
Km (GalNAc-T4; acceptor substrate, read-out: Km GalNAc-T4): 2190 µM
Km (GalNAc-T1 [3]): 70 µM
Vmax GalNAc-T1 (GalNAc-T1 [3]): 0.99 nmol/min/µg
Compound: DSTTPAPTTK [EA2, mucin derived substrate]

GalNAc-T2 activity with acceptor peptide (GalNAc-T2 [1]; 0.06 mM peptide in 50-μl assay): 0.0 milliunits/mg
GalNAc-T2 activity with acceptor peptide (GalNAc-T2 [1]; 0.25 mM peptide in 50-μl assay): 0.0 milliunits/mg
GalNAc-T4 activity with substrate (in words) (GalNAc-T4): not
Compound: QATEYEYLDYDFLPEC [PSGL-1a]

Compound: CC(=O)N[C@H]1[C@@H](OP(=O)(O)OP(=O)(O)OC[C@H]2O[C@@H](n3ccc(=O)[nH]c3=O)[C@H](O)[C@@H]2O)O[C@H](CO)[C@H](O)[C@@H]1O [UDP-GalNAc, UDP-N-acetylgalactosamine]
Km (GalNAc-T3 [4]): 29 µM
Km (GalNAc-T2 [5]): 10 µM
Km (GalNAc-T4; donor substrate, saturating concentration of Muc7 as substrate, read-out: Km GalNAc-T4): 160 µM
Km (GalNAc-T4; using the Muc7 acceptor substrate, read-out: Km of purified GalNAc-T4 for UDP-GalNAc): 160 µM
Km (GalNAc-T1 [6]): 62 µM
